{"source": "paper PMC10925157", "biological_target": "Acinetobacter baumannii rhodanese-like domain protein (Ab-RLD) (Acinetobacter baumannii)", "assay": "SEC", "data": [{"substance": "Acinetobacter baumannii rhodanese-like domain protein (Ab-RLD) (enzyme)", "values": [{"measurement": "stoichiometry N", "value": 2}]}]}
